Experimental findings from publication PMC4740771, “Nucleotide-dependent assembly of the peroxisomal receptor export complex” (Scientific Reports, 2016) are described below.

The target in data set [1] is Pex15p(1-315)His (GST removed by thrombin) (S. cerevisiae) (UniProt Q08215). Briefly: SEC; as a8 but 2.5 mM ATPγS added during thrombin incubation of the wild-type complex. Background: In gel filtration, larger molecules generally elute earlier.
Data set [2] shares this target. Briefly: SEC; 700 kDa fractions of the Pex1/6p/Pex15p complexes pooled, kept 72 h on ice (4 °C), then size exclusion again; anti-His immunoblot, signal intensities.
Data set [3] addresses GST-Pex15p(1-315)His (S. cerevisiae) (UniProt Q08215). Briefly: pull-down; GST-Pex15p(1-315)His incubated with purified proteins, loaded on GSH-agarose, eluted with glutathione; 5 mM ATP; Coomassie and immunoblot, signal intensities of load and eluate. A general note: Immunoblotting shows a protein as a band on a membrane.
The target in data set [4] is Pex15p(1-315)His (GST removed by thrombin) (S. cerevisiae) (UniProt Q08215). Briefly: SEC; Pex1/6p/Pex15p complex isolated on GSH-agarose, released by thrombin (GST left on the column), Superose 6 (small-scale and preparative) in presence of ATP; anti-His immunoblot or Coomassie, signal intensities by ImageJ.
The target in data set [5] is T1, Pex15p(1-315)His (GST removed by thrombin) (S. cerevisiae, UniProt Q08215 1-315).
T1 construct: Pex15p of S. cerevisiae, cytosolic part, residues 1 to 315; Same construct as m10 after thrombin cleavage; detected by anti-His antibodies; Printed mass 36 kDa; alone it eluted at about 100 kDa; also called Pex15pHis; source: E. coli BL21 (DE3), purified (Glutathione Agarose 4B), released from GSH-agarose by thrombin; not shown: GST, N-terminal, cleaved; His6, C-terminal, kept
T1 sequence (looked up): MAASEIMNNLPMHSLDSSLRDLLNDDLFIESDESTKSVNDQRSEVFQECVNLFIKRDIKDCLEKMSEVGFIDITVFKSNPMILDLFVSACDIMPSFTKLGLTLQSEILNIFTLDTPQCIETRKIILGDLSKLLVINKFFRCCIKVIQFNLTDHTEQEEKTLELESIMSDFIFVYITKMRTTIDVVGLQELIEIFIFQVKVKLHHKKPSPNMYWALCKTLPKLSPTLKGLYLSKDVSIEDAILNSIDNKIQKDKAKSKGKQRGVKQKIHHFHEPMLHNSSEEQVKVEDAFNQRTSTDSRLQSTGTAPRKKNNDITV
Described as above. The note with it: both partners purified.

Data set [6] concerns the target T2, HisPex1p released from HisPex1pGST by thrombin (S. cerevisiae, UniProt P24004 1-1043).
T2 construct: Pex1p, type II AAA-ATPase peroxin of yeast; The GST tag held the complex on GSH-agarose during purification and stayed on the column after thrombin cleavage; source: E. coli Tuner (DE3), co-purified with HisPex6p (NiNTA-agarose, GSH-agarose, thrombin release); not shown: His6, N-terminal, kept; GST, C-terminal, cleaved
T2 sequence (looked up): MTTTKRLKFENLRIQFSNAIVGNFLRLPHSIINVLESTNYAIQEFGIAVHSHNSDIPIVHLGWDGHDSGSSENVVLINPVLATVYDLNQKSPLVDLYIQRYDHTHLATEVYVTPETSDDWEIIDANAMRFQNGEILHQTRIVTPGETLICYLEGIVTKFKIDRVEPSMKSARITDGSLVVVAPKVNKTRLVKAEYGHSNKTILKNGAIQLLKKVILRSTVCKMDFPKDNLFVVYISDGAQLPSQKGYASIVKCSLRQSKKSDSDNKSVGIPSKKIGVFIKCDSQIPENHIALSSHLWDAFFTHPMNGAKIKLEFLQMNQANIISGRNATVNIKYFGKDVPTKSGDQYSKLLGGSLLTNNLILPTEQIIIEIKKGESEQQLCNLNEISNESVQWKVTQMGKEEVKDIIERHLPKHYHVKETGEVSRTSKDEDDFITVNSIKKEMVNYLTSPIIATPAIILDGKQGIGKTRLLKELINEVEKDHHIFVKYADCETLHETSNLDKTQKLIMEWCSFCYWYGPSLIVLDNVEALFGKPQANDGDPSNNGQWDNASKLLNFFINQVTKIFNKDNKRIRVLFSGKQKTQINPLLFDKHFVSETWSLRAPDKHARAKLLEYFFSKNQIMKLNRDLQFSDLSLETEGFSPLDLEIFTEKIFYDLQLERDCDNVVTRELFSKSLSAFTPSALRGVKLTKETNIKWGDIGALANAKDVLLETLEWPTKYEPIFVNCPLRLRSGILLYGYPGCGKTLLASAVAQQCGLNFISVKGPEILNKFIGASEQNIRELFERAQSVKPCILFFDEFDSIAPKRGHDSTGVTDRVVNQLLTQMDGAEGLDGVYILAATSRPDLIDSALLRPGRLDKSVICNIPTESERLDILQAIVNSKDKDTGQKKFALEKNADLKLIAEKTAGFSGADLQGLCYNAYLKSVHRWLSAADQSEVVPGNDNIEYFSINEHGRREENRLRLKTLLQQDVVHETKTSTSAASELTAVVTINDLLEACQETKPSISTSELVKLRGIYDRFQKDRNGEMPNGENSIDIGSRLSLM
Described as above. The note with it: both partners purified.

Data set [7] concerns the molecule itself. Briefly: SEC; second gel filtration of the purified heterohexameric complexes after incubation at 37 °C.

In the case of “Pex1/6p-complex (recombinant heterohexameric AAA-complex), P24004 1-1043; P33760 1-1030”, the percent of Pex15p still bound after 72 h in data set [1] was 20%; in data set [2] it was under 10%. Moreover, the fold binding against single Pex6p in data set [3] is 3 fold. Besides, the stoichiometry N (Pex15p per Pex1p of the complex) in data set [4] turned out to be 0.9. Moreover, in data set [4] (scale: Pex15p per heterohexameric Pex1/6p complex), the stoichiometry N (usually a count of units in the complex or per binding partner) stood at 3.
The molecule “Pex1/6pWB complex (wild-type Pex1p with Pex6p E832Q), P24004 1-1043; P33760 1-1030” yielded a percent of Pex15p still bound after 72 h in data set [2] of 40%. In addition, the stoichiometry N (Pex15p per Pex1p of the complex) in data set [4] amounted to 0.9.

B1: HisPex6p(E832Q) (natural protein, S. cerevisiae, UniProt P33760 1-1030, looked up)
chain: MKASLTFSLSGIYAPCSISRDIYLEYGDKKAECLYGTIRLPQYGPGCTPGKIVHCVLDDSLPFCSIVVPSKLFGFMPTQPTMDFCYFEPILDNVVPVLDSVTFLINEQLYSKLMDLPQEMQQIQFLHYKYNINSMETVVHSRDILTSGLCQILNCSPFPQGLVDFTETQLILVNDTEQKLSALKYANEDEEYALPKIGTNSALSIDLESLPCTISRDLLRPAPHINDDNSIYAFTDAETLLRLDVTSGSFITVSNMGCVRLVKLFVLLLPNGFKKRTIYAPPKIIASFPDCSVVTISKSNIGHTDIPIANQVFISRVGGWLQSQKCFQNIILTTLKKFFSESKRILCQNDLIPIAFDSSMADLNIAEENDESDDEDELGQYYKNDSLVWFFVTSAELDCFSKDNSHFIIDPNRTKLITTNITNRRPLPLSRSNLQRYYGFAETFYYDLHIFPYVRQLVNILETSFNCSQRGITLNASVLLHSTTNNVGKATMVRFASKYLGIHLLEIDCLSLTSNSRQLDSTSKIIGYIRAKCENVLPYASPAVIFLAHLDSILLDVNANQDPEAIKLQKSINFEMSKLLDDFTFKFPGTTFVGSVNNIDNVPSSFRSHMRFEILVPVPSEAQRLRIFQWYLSSHELNRDVQQKVPVSYMDNISFSSLSSYSAGLTPLDIKSIVETARMTATARFYQESKKCGWLPQSILITQEDLSKATSKARNEFSVSIGAPQIPNVTWDDIGGIDFVKGEILDTIDMPLKHPELFTSGMKKRSGILFYGPPGTGKTLMAKAIATNFSLNFFSVKGPELLNMYIGESEANVRRVFQKAREAKPCVIFFDQIDSVAPKRGNQGDSGGVMDRIVSQLLAELDGMSTDADGVFVIGATNRPDLLDEALLRPGRFDKLLYLGIPDTDTKQLNILEALTRKFVLDNDVKLIELAKLCPFNYTGADFYALCSDAMLNAMSRIARMVEKKVSQHNELTGENISTRRWFDKIATKEDTKVVVKMEDFLKAQEQLTPSVSRAELNHYEAVRANFEGA
notes: Pex6p of yeast with the Walker B mutation of the D2 domain; also called Pex6pWB; PEX6WB^E832Q; source: E. coli Tuner (DE3), co-purified with HisPex1pGST; not shown: His6, N-terminal, kept
Turning to B1, the “stoichiometry N” value came out at 1 Pex15p per Pex6p in data set [5] and 0.9 Pex6p per Pex1p in data set [6].

B2: HisPex1p(D797N) released from its GST fusion (natural protein, S. cerevisiae, UniProt P24004 1-1043, looked up)
chain: MTTTKRLKFENLRIQFSNAIVGNFLRLPHSIINVLESTNYAIQEFGIAVHSHNSDIPIVHLGWDGHDSGSSENVVLINPVLATVYDLNQKSPLVDLYIQRYDHTHLATEVYVTPETSDDWEIIDANAMRFQNGEILHQTRIVTPGETLICYLEGIVTKFKIDRVEPSMKSARITDGSLVVVAPKVNKTRLVKAEYGHSNKTILKNGAIQLLKKVILRSTVCKMDFPKDNLFVVYISDGAQLPSQKGYASIVKCSLRQSKKSDSDNKSVGIPSKKIGVFIKCDSQIPENHIALSSHLWDAFFTHPMNGAKIKLEFLQMNQANIISGRNATVNIKYFGKDVPTKSGDQYSKLLGGSLLTNNLILPTEQIIIEIKKGESEQQLCNLNEISNESVQWKVTQMGKEEVKDIIERHLPKHYHVKETGEVSRTSKDEDDFITVNSIKKEMVNYLTSPIIATPAIILDGKQGIGKTRLLKELINEVEKDHHIFVKYADCETLHETSNLDKTQKLIMEWCSFCYWYGPSLIVLDNVEALFGKPQANDGDPSNNGQWDNASKLLNFFINQVTKIFNKDNKRIRVLFSGKQKTQINPLLFDKHFVSETWSLRAPDKHARAKLLEYFFSKNQIMKLNRDLQFSDLSLETEGFSPLDLEIFTEKIFYDLQLERDCDNVVTRELFSKSLSAFTPSALRGVKLTKETNIKWGDIGALANAKDVLLETLEWPTKYEPIFVNCPLRLRSGILLYGYPGCGKTLLASAVAQQCGLNFISVKGPEILNKFIGASEQNIRELFERAQSVKPCILFFNEFDSIAPKRGHDSTGVTDRVVNQLLTQMDGAEGLDGVYILAATSRPDLIDSALLRPGRLDKSVICNIPTESERLDILQAIVNSKDKDTGQKKFALEKNADLKLIAEKTAGFSGADLQGLCYNAYLKSVHRWLSAADQSEVVPGNDNIEYFSINEHGRREENRLRLKTLLQQDVVHETKTSTSAASELTAVVTINDLLEACQETKPSISTSELVKLRGIYDRFQKDRNGEMPNGENSIDIGSRLSLM
notes: Pex1p of yeast with a mutation of the aspartate of the Walker B motif of the D2 domain; also called Pex1WB^D797N; Pex1pWB^D797N; not shown: His6, N-terminal, kept; GST, C-terminal, cleaved
Consider B2, for which, in data set [7], the “stoichiometry N” value turned out to be 3.
